Source: patent publication US20260207767A1 (ANAVEON, published 2026)

B1: PXU588 (bispecific antibody, human IgG1, kappa, L234A L235A)
heavy 1: EVQLLESGGGLVQPGGSLRLSCAASGFTFSINAMTWVRQAPGKGLEWVSTISGSGFSTYYADSLKGRFTISRDNSKNTLYLQMNSLRAEDTAVYYCAKEVYGDYWGQGTLVTVSSASVAAPSVFIFPPSDEQLKSGTASVVCLLNNFYPREAKVQWKVDNALQSGNSQESVTEQDSKDSTYSLSSTLTLSKADYEKHKVYACEVTHQGLSSPVTKSFNRGECDKTHTCPPCPAPEAAGGPSVFLFPPKPKDTLMISRTPEVTCVVVDVSHEDPEVKFNWYVDGVEVHNAKTKPREEQYNSTYRVVSVLTVLHQDWLNGKEYKCKVSNKALAAPIEKTISKAKGQPREPQVYTLPPSREEMTKNQVSLTCLVKGFYPSDIAVEWESNGQPENNYKTTPPVLDSDGSFFLTSKLTVDKSRWQQGNVFSCSVMHEALHNHYTQKSLSLSPGK
light 1: RSVLTQPPSASGTPGQRVSISCSGASSNIGSSSVFWYQQLPGTAPKLLIYSNNQRPSGVPDRFSGSKSGTSASLAISGLRSEDEADYYCAAWDDSLSIWVFGGGTKLTVLSSASTKGPSVFPLAPSSKSTSGGTAALGCLVKDYFPEPVTVSWNSGALTSGVHTFPAVLQSSGLYSLSSVVTVPSSSLGTQTYICNVNHKPSNTKVDKRVEPKSC
heavy 2: EVQLVQSGAEVKKPGESLKISCKGSGYAFTNYLIEWVRQMPGKGLEWMGVINPGSGGTNYNEKFKGQVTISADKSISTAYLQWSSLKASDTAMYYCARWRGEGYYAYFDVWGQGTTVTVSSASTKGPSVFPLAPSSKSTSGGTAALGCLVKDYFPEPVTVSWNSGALTSGVHTFPAVLQSSGLYSLSSVVTVPSSSLGTQTYICNVNHKPSNTKVDKRVEPKSCDKTHTCPPCPAPEAAGGPSVFLFPPKPKDTLMISRTPEVTCVVVDVSHEDPEVKFNWYVDGVEVHNAKTKPREEQYNSTYRVVSVLTVLHQDWLNGKEYKCKVSNKALAAPIEKTISKAKGQPREPQVYTLPPSREEMTKNQVSLYCLVKGFYPSDIAVEWESNGQPENNYKTTPPVLDSDGSFFLYSKLTVDKSRWQQGNVFSCSVMHEALHNHYTQKSLSLSPGK
light 2: not shown
notes: also called IgG CrossMab 21A08A p2 x QTY065
B2: Antibody A (antibody, human IgG1, kappa, N297A, V domains shown)
VH: EVQLVQSGAEVKKPGESLKISCKGSGYAFTNYLIEWVRQMPGKGLEWMGVINPGSGGTNYNEKFKGQVTISADKSISTAYLQWSSLKASDTAMYYCARWRGEGYYAYFDVWGQGTTVTVSS
VL: AIRLTQSPSSFSASTGDRVTITCKASQSVDYQGDSYMNWYQQKPGKAPKLLIYAASNLESGVPSRFSGSGSGTDFTLTISSLQSEDFATYYCQQSNEDPYTFGGGTKVEIKR
notes: humanized from antibody NARA1
B3: 21A08 (antibody, V domains shown)
VH: EVQLLESGGGLVQPGGSLRLSCAASGFTFSINAMTWVRQAPGKGLEWVSTISGSGFSTYYADSLKGRFTISRDNSKNTLYLQMNSLRAEDTAVYYCAKEVYGDYWGQGTLVTVSS
VL: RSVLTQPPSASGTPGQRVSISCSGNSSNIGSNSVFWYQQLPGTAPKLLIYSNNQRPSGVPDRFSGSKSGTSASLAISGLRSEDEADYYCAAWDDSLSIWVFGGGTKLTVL
notes: used with CH1,2,3 and CL(lambda); also called clone 21A08
B4: Antibody B (antibody, human IgG1, kappa, V domains shown)
VH: QVQLVESGGGVVQPGRSLRLSCAASGYTFSSYLIEWVRQAPGKGLEWVAVINPGSGGTNYADSVKGRFTISADKSKNTAYLQMNSLRAEDTAVYYCARWRGDGYYAYFDVWGQGTTVTVSS
VL: EIVLTQSPATLSVSPGERATLSCRASQSVSYDGDSYMNWYQQKPGQAPRLLIYAASNLASGIPARFSGSGSGTEFTLTISSLQSEDAAVYYCQQSNEDPYTFGGGTKVEIKR
B5: 56H02 (antibody, V domains shown)
VH: QVQLVQSGAEVKKPGASVKVSCKASGYTFTSYFMHWVRQAPGQGLEWMGLINPDGGNTDYAQKFQGRVTMTRDTSTSTVYMELSSLRSEDTAVYYCARDGNYYDSSGYYYPDAFDIWGQGTMVTVSS
VL: SSELTQDPAVSVALGQTVRITCQGDSLRRFYASWYQQKPGQAPVIVIYGKDNRPSGTPDRFSGSTSGNTASLTITGAQAEDEADYYCNSRDSSGTHVVFGGGTKLTVL
notes: used with CH1,2,3 and corresponding CL
B6: QTY065 Fab (Fab)
heavy: B2 VH
light: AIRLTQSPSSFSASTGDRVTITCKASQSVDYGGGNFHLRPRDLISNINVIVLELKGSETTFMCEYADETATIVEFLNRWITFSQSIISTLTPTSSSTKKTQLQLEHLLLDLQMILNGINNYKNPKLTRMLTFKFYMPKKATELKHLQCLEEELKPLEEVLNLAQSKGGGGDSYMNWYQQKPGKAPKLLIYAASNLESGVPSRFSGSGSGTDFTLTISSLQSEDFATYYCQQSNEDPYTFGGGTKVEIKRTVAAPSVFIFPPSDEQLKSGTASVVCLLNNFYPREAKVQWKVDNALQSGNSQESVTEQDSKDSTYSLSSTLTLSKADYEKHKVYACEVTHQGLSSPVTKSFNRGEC
notes: also called Fab fragment of QTY065; not shown: CH1

Key:
[1] = target: T1, IL-2R CD122-CD132 on Jurkat-PD1+CD122+ cells (UniProt P14784 27-551; P31785 23-369); assay: cell-based or functional assay
T1 sequence (looked up) 1: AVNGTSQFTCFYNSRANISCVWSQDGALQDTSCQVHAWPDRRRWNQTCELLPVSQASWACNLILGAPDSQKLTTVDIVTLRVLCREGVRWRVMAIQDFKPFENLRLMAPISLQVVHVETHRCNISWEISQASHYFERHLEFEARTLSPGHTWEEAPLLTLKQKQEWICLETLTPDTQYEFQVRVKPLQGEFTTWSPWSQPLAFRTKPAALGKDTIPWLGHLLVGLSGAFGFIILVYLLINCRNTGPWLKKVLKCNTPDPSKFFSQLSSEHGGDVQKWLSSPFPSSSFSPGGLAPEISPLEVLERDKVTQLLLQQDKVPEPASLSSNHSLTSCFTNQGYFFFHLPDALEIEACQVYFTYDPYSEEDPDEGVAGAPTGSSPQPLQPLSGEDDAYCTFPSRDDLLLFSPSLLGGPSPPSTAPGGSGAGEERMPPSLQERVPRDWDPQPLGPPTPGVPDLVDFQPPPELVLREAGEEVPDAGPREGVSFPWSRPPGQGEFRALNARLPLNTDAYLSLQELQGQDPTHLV
T1 sequence (looked up) 2: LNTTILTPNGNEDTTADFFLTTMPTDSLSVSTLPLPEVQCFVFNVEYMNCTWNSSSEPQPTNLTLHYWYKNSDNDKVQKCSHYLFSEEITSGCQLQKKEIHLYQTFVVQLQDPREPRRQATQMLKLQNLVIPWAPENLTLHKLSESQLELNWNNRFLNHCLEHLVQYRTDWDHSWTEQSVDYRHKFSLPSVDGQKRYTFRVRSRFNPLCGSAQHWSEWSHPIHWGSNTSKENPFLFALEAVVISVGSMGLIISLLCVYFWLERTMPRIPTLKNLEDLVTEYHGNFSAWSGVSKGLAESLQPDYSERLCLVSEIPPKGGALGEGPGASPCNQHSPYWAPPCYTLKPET

[2] = target: T2, hPD-1 (ECD-His, produced in house) (human, UniProt Q15116 25-170); assay: binding ELISA
T2 construct: extracellular domain; also called coated hPD-1
T2 sequence (Q15116 25-170): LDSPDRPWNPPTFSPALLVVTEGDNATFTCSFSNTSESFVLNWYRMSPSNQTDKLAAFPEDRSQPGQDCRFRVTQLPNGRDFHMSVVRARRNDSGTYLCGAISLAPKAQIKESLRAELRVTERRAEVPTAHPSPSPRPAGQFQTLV
Procedure: 60 nM of hPD-1 (ECD-His, produced in house) was coated on a Maxisorp plate (Nunc) overnight at 4° C. and blocked with 5% BSA in PBS. […] Absorbance signal after adding TMB was read with a plate reader (Spectramax ID3) at 450 nm. EC50 values were determined by blotting absorbance against concentration (Graphpad Prism, sigmoidal curve fit, 4 PL, X-axis is log).

[3] = target: T3, recombinant human IL-2 (human, UniProt P60568 21-153); assay: ELISA, coated IL-2
T3 construct: bought (BLI: Acro Biosystems IL2-H4113); also called rhIL-2; hIL-2
T3 sequence (P60568 21-153 limits assumed): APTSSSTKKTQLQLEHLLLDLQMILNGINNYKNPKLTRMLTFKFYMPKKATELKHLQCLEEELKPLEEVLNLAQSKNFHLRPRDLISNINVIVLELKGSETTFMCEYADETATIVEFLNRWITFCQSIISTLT
Procedure: (§1) Binding to IL-2 was first tested by ELISA using a serial dilution of antibodies on coated IL-2. Recombinant human IL-2 was coated on Maxisorp ELISA plates (Invitrogen, 44-2404-21) at 5 μg/ml, 4° C. overnight. […] The antibodies were detected with anti-human IgG-Peroxidase (Sigma, A0170). After addition and blockade of the chemiluminescent substrate, absorption was read (A₄₅₀-A₅₇₀ at plate reader, Spectramax 03). EC₅₀ values were obtained by plotting Absorbance vs. log(Concentration) and sigmoidal 4-PL fitting using GraphPad Prism (Table 1). […] Antibodies were immobilized on amine reactive (2nd Generation) sensors (ForteBio, 18-5092). Association (600s) and dissociation (900s) of a dilution series of recombinant IL-2 (Acro Biosystems, IL2-H4113) were measured on the antibody-coated biosensors on an Octet-System (Octet RED, ForteBio). KD values were obtained by fitting the kinetics data with the ForteBio Data Analysis Software (8.2).

[4] = target: T3, recombinant human IL-2; assay: BLI, antibody immobilized
Procedure: as §1

[5] = target: T4, recombinant hPD-1 (construct not stated) (human, UniProt Q15116 25-167, limits assumed); assay: BLI, supernatants
T4 construct: also called huPD-1; Human PD1
T4 sequence (Q15116 25-167 limits assumed): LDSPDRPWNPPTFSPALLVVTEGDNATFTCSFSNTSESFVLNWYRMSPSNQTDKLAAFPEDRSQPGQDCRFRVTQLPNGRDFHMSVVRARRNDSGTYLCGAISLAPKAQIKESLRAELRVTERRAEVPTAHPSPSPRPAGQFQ
Source text: In order to remove an N-glycosylation site present in the CDR-L1, mutations were inserted in the CDR-L1 of 21A08. The first asparagine ([…], N) in CDR-L1, was replaced by a serine (Ser, S), Glutamine (Gln, Q), or Alanine (Ala, A).

[6] = target: T5, human PD-1 expressed on cells (human, UniProt Q15116 25-288); assay: flow cytometry, HEK293 huPD1
T5 construct: whole, on cells; cell line named under assay; also called CHO-S hPD-1; Raji PD-1
T5 sequence (Q15116 25-288): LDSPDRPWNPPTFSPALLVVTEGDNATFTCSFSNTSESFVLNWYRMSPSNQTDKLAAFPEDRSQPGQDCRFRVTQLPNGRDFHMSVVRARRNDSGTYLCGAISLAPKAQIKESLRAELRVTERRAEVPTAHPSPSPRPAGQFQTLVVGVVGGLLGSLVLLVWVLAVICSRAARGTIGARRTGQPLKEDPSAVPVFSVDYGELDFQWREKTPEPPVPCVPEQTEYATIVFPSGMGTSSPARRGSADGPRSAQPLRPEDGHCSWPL

[7] = target: T6, cynomolgus PD-1 expressed on cells (cynomolgus monkey, UniProt B0LAJ3 25-288); assay: flow cytometry, HEK293 cyPD1
T6 construct: also called CHO-S Cyno-PD-1; 293:cyPD1
T6 sequence (B0LAJ3 entry or part of it limits assumed): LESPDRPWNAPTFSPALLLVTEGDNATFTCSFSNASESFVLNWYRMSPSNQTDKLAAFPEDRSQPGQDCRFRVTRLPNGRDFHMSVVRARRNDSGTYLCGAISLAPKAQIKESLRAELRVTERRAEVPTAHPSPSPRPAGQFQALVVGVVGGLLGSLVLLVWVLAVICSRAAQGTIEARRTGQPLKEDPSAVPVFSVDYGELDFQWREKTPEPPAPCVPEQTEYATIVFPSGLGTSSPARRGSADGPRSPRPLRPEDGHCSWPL

[8] = target: T7, hPD-1 His-tagged (human, UniProt Q15116 25-167); assay: BLI (legend: SPR), Ab on sensor
T7 construct: also called recombinant hPD-1 (AcroBio)
T7 sequence (Q15116 25-167 limits assumed): as the sequence (Q15116 25-167 limits assumed) above

[9] = target: T8, cynoPD-1 His (AcroBiosystems PD1-C5223) (cynomolgus monkey, UniProt B0LAJ3 25-170); assay: BLI (legend: SPR), Ab on sensor
T8 construct: also called cPD-1; cynomolgus PD-1 His-tagged
T8 sequence (B0LAJ3 entry or part of it limits assumed): as the sequence (Q15116 25-170) above, with D2E, P10A, V19L, T35A, Q75R, T144A counted along it

[10] = target: T3, recombinant human IL-2; assay: BLI, antibody immobilized; BLI: antibody immobilized on amine reactive sensors, rhIL-2 in solution as a dilution series
Procedure: as §1

[11] = target: T9, CD122/CD132 complex (His-tagged, Acro Biosystem ILG-H5283) (UniProt P14784 27-239; P31785 23-254, limits assumed); assay: SPR, CD122/CD132 captured on NTA chip
T9 construct: bought; also called dimeric IL-2 receptor
T9 sequence (looked up) 1: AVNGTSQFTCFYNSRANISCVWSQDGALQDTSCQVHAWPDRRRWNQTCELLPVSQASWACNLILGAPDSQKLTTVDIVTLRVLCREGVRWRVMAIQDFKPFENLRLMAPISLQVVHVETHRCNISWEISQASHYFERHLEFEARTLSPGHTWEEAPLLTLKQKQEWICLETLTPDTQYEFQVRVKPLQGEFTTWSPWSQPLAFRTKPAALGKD
T9 sequence (looked up) 2: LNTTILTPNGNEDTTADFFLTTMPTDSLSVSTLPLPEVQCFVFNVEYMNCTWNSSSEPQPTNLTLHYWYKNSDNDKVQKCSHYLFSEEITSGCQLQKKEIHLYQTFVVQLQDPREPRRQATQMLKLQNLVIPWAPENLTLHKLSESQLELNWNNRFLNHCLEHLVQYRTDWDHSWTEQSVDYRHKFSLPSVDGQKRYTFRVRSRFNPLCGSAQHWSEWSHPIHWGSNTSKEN
Source text: Binding to the CD122/CD132 complex (His-tagged, Acro Biosystem, Cat #ILG-H5283) of one representative anti-IL-2 antibody/IL-2 fusion (QTY065) was additionally assessed by SPR (BIAcore 3000, v4.1.2; GE Healthcare) and compared to Proleukin. CD122/CD132 was captured on an NTA sensor chip (GE Healthcare). Proleukin or QTY065 Fab were used as analytes.

Row | Binder | EC50 [6] | EC50 [7] | Kd [8] | koff [8] | kon [8] | Kd [9] | koff [9] | kon [9] | other results
1 | B1 |  |  |  |  |  |  |  |  | EC50 value for pSTAT5 induction, Jurkat-PD-1+CD122+ cells [1]: 5.37 nM; binding result [2]: no binding
2 | B2 |  |  |  |  |  |  |  |  | EC50 [3]: 0.37 nM; Kd [4]: 2.1 nM
3 | B3 | 0.243 nM | 0.195 nM | 0.00927 nM | 6.39e-07 s⁻¹ | 69000 M⁻¹ s⁻¹ | 1.24 nM | 8.25e-05 s⁻¹ | 66700 M⁻¹ s⁻¹ | Kd [5]: 2.17 nM; koff [5]: 0.00014 s⁻¹
4 | B4 |  |  |  |  |  |  |  |  | Kd [10]: 270 nM
5 | B5 | 0.0921 nM | 0.0881 nM | 0.228 nM | 3.79e-05 s⁻¹ | 166000 M⁻¹ s⁻¹ | 0.262 nM | 3.67e-05 s⁻¹ | 140000 M⁻¹ s⁻¹ | 
6 | B6 |  |  |  |  |  |  |  |  | Kd [11]: 0.32 nM
